Assay results published in publication PMC10189407 (The Journal of Biological Chemistry, 2023).
Numbering of substitutions follows the chain as printed. Names may count otherwise.

B1: crenezumab G33S(HC)-NEP fusion, IgG-CTF-2 format (antibody, V domains shown)
VH: EVQLVESGGGLVQPGGSLRLSCAASGFTFSSYSMSWVRQAPGKGLELVASINSNGGSTYYPDSVKGRFTISRDNAKNSLYLQMNSLRAEDTAVYYCASGDYWGQGTTVTVSS
VL: DIVMTQSPLSLPVTPGEPASISCRSSQSLVYSNGDTYLHWYLQKPGQSPQLLIYKVSNRFSGVPDRFSGSGSGTDFTLKISRVEAEDVGVYYCSQSTHVPWTFGQGTKVEIK
B2: crenezumab G33S(HC)/S56F(LC)-NEP fusion, IgG-CTF-2 format (antibody, V domains shown)
VH: B1 VH
VL: B1 VL with S61F

Biological target: Aβ(1–28) (Homo sapiens (assumed), UniProt P05067)
Assay: SPR

Chain of Aβ(1–28) (P05067 672-699): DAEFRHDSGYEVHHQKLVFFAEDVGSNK

Binder	binding result
B1	binds
B2	binds
